Laboratory results: PMC4316792, “The dehydrogenase region of the NADPH oxidase component Nox2 acts as a protein disulfide isomerase (PDI) resembling PDIA3 with a role in the binding of the activator protein p67^phox” (Frontiers in Chemistry, 2015)
Where a chain is given by its changes, count along the chain named. Entries after “also recorded” stand apart in the source; their conditions may differ. Bridges are numbered along the chain shown (N, C = ends). The star is where a group is joined. Biotin = O=C1N[C@H]2[C@H](CS[C@H]2CCCCC(=O)*)N1

Tests used:
PDI = details: disulfide form; ref Kersteen and Raines, [2003]; Wang et al., [2011]; cited from earlier work
Excerpt: Based on the resemblance of the CXC motif with the CXXC motif characteristic of the catalytic motifs of PDI and thioredoxin, we synthesized analogs of Nox2 peptide 24 ([…]) in which the CGC sequen ...

[1] = biological target: NusA-Nox2(357–570) (human) (UniProt P04839); experiment: SEC; FPLC gel filtration on HiLoad 16/60 Superdex 200 prep grade; separated a polymeric fraction from a homodimer fraction
p67^phox(1–212) [2] = biological target: T1, p67^phox(1–212) (UniProt P19878 1-212); experiment: ELISA; peptide—protein binding of p67^phox to Nox2 peptide 28, told in the results without a figure (the introduction gives manuscripts in preparation); details: both partners purified
T1 construct: contains four cysteines (40, 45, 121, 165); source: E. coli, purified (Nickel Sepharose); not shown: 6His, N-terminal, kept
T1 sequence (looked up): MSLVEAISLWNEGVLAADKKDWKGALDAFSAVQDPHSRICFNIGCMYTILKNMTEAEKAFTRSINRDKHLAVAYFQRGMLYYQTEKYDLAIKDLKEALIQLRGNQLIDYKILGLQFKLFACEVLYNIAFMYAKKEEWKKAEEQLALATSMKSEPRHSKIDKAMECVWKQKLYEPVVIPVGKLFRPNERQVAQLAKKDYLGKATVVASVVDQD

p67^phox(1–526) = biological target: T2, p67^phox(1–526) (UniProt P19878 1-526); experiment: as above; details: both partners purified
T2 construct: construct as in Mizrahi et al., 2010; also called full-length p67^phox; 6His-p67^phox; source: E. coli, purified (Nickel Sepharose); not shown: 6His, N-terminal, kept
T2 sequence (looked up): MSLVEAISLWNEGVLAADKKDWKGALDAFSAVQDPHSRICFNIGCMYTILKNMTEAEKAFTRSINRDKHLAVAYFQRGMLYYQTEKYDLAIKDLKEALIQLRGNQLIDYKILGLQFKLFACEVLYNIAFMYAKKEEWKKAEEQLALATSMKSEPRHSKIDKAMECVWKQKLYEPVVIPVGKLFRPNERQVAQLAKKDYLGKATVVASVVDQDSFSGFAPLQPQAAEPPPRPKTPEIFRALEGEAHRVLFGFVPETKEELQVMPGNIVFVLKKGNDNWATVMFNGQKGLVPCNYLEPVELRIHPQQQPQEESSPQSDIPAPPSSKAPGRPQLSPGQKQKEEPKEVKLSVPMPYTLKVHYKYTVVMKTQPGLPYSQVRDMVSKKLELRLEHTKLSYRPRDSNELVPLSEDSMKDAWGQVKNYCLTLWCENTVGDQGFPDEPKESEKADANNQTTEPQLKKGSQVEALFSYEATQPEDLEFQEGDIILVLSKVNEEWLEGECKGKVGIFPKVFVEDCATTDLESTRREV

[3] = biological target: T3, NADPH oxidase (macrophage membrane liposomes, cytochrome b558) (Cavia porcellus, UniProt H0UXC6); experiment: Cell-free NADPH oxidase activation, amphiphile- and p47phox-independent; assay type: biochemical, guinea pig; details: equal concentrations of p67phox and prenylated Rac1 Q61L 50–600 nM, 5 nM cytochrome b558 heme, 5 min (Figure 13B), read-out: EC50, support of NADPH oxidase activation
[4] = Binding of thiol reagent mBBr to p67phox(1–212); details: results not shown
[5] = biological target: T3, NADPH oxidase (macrophage membrane liposomes, cytochrome b558); experiment: Cell-free NADPH oxidase activation, amphiphile- and p47phox-dependent; assay type: biochemical, guinea pig; details: for EC50: equal concentrations of p67phox, p47phox and Rac1 Q61L 10–200 nM, LiDS 120 μM, 5 nM cytochrome b558 heme, 90 s (Figure 13A), read-out: EC50, support of NADPH oxidase activation
[6] = tested on: Nox2 peptide 24 (357–371); experiment: Peptide–protein binding assay, wild type and Cys to Ser mutant p67phox(1–212) to Nox2 peptide 24; details: 3 experiments (Figure 12); for binding to Nox2 peptide 24 in the disulfide form: 24N CGC S-S; for binding to Nox2 peptide 24 in the dithiol (reduced) form: 24N CGC
p67^phox(1–212) [7] = experiment: Protein–protein binding assay, p67phox(1–212); details: Figure 5A,B

Molecule: RKCGC (disulfide) [small peptide RKCGC]
- mimicry of the actions of PDI protein (PDI): can mimic the actions of PDI protein

Molecule: NusA-Nox2(357–570) (from UniProt P04839 357-570) (domain or fragment)
- stoichiometry N [1]: 2

B1: Nox2 peptide 28 (369–383) with an intramolecular disulfide bond linking cysteines 369 and 371 (peptide)
peptide: Biotin-SGSGCGCDKQEFQDAWKLP-NH2
modifications: disulfide 5-7
SMILES: CC(C)C[C@H](NC(=O)[C@H](CCCCN)NC(=O)[C@H](Cc1c[nH]c2ccccc12)NC(=O)[C@H](C)NC(=O)[C@H](CC(=O)O)NC(=O)[C@H](CCC(N)=O)NC(=O)[C@H](Cc1ccccc1)NC(=O)[C@H](CCC(=O)O)NC(=O)[C@H](CCC(N)=O)NC(=O)[C@H](CCCCN)NC(=O)[C@H](CC(=O)O)NC(=O)[C@@H]1CSSC[C@H](NC(=O)CNC(=O)[C@H](CO)NC(=O)CNC(=O)[C@H](CO)NC(=O)CCCC[C@@H]2SC[C@@H]3NC(=O)N[C@@H]32)C(=O)NCC(=O)N1)C(=O)N1CCC[C@H]1C(N)=O
notes: spacer between the N-terminal biotin and the peptide, printed as Ser-Gly-Ser-Gly; also called peptide 28, disulfide form; source: synthetic peptide (Mimotopes or Bachem); not shown: biotin, N-terminal, kept
- binding result (p67^phox(1–212) [2]): binds
- binding result (p67^phox(1–526)): binds

B2: p67^phox(1–212): wild-type recombinant p67phox residues 1–212 (protein)
chain: T1 sequence (looked up)
modifications: left off: 6His, N-terminal, kept
- EC50 [3]: 224 nM
- binding of mBBr [4]: bound mBBr
- EC50 [5]: 57.2 nM
- binding to Nox2 peptide 24 in the disulfide form [6]: much enhanced binding
- binding to Nox2 peptide 24 in the dithiol (reduced) form [6]: moderate binding
- binding of NusA-Nox2 to p67phox(1–212) relative to p67phox(1–526) (p67^phox(1–212) [7]): exceeded

B3: Mutant p67^phox: recombinant p67phox(1–212) in which cysteines 40, 45, 121, and 165 were mutated to serine (protein)
chain: T1 sequence (looked up) with C40S, C45S, C121S, C165S
modifications: left off: 6His, N-terminal, kept
notes: recombinant p67phox(1–212) in which cysteines 40, 45, 121, and 165 were mutated to serine
- EC50 [3]: 405 nM
- binding of mBBr [4]: did not
- increase in EC50 versus wild-type [5]: two-fold
- EC50 [5]: 114 nM
- binding to Nox2 peptide 24 in the disulfide form ([6]; listed as mutant protein): markedly reduced
- binding to Nox2 peptide 24 in the dithiol (reduced) form ([6]; listed as mutant protein): lacked binding ability; also recorded: markedly reduced
